Measured values from article PMC10558642 (2023).

B1: recombinant GPX4 protein (SPR and MST) (natural protein)
chain: MSLGRLCRLLKPALLCGALAAPGLAGTMCASRDDWRCARSMHEFSAKDIDGHMVNLDKYRGFVCIVTNVASQUGKTEVNYTQLVDLHARYAECGLRILAFPCNQFGKQEPGSNEEIKEFAAGYNVKFDMFSKICVNGDDAHPLWKWMKIQPKGKGILGNAIKWNFTKFLIDKNGCVVKRYGPMEEPLVIEKDLPHYF
B2: His-OTUD5 (natural protein)
chain: MTILPKKKPPPPDADPANEPPPPGPMPPAPRRGGGVGVGGGGTGVGGGDRDRDSGVVGARPRASPPPQGPLPGPPGALHRWALAVPPGAVAGPRPQQASPPPCGGPGGPGGGPGDALGAAAAGVGAAGVVVGVGGAVGVGGCCSGPGHSKRRRQAPGVGAVGGGSPEREEVGAGYNSEDEYEAAAARIEAMDPATVEQQEHWFEKALRDKKGFIIKQMKEDGACLFRAVADQVYGDQDMHEVVRKHCMDYLMKNADYFSNYVTEDFTTYINRKRKNNCHGNHIEMQAMAEMYNRPVEVYQYSTGTSAVEPINTFHGIHQNEDEPIRVSYHRNIHYNSVVNPNKATIGVGLGLPSFKPGFAEQSLMKNAIKTSEESWIEQQMLEDKKRATDWEATNEAIEEQVARESYLQWLRDQEKQARQVRGPSQPRKASATCSSATAAASSGLEEWTSRSPRQRSSASSPEHPELHAELGMKPPSPGTVLALAKPPSPCAPGTSSQFSAGADRATSPLVSLYPALECRALIQQMSPSAFGLNDWDDDEILASVLAVSQQEYLDSMKKNKVHRDPPPDKS
modifications: Red-tris-NTA dye on the His tag (MST only)

Experiments:
His-OTUD5 = molecular target: B2; test: MST
[1] = molecular target: B1; test: SPR

| Binder | Kd (His-OTUD5) | Kd [1] |
| --- | --- | --- |
| B1 | 230 nM |  |
| B2 |  | 720 nM |
